Experimental data: patent publication US20220332804A1 (CSL INNOVATION, published 2022)

Legend:
Assay in all cases: SPR, antibody captured, C2 as analyte;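 also: biacore SPR at 37 °C, anti-C2 mAbs captured via goat anti-human IgG on CM5 chips, double-referenced sensorgrams fit to a 1:1 kinetic or steady-state model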
human C2 M648A = biological target: T1, human C2 M648A (human, UniProt P06681 21-752)
T1 sequence: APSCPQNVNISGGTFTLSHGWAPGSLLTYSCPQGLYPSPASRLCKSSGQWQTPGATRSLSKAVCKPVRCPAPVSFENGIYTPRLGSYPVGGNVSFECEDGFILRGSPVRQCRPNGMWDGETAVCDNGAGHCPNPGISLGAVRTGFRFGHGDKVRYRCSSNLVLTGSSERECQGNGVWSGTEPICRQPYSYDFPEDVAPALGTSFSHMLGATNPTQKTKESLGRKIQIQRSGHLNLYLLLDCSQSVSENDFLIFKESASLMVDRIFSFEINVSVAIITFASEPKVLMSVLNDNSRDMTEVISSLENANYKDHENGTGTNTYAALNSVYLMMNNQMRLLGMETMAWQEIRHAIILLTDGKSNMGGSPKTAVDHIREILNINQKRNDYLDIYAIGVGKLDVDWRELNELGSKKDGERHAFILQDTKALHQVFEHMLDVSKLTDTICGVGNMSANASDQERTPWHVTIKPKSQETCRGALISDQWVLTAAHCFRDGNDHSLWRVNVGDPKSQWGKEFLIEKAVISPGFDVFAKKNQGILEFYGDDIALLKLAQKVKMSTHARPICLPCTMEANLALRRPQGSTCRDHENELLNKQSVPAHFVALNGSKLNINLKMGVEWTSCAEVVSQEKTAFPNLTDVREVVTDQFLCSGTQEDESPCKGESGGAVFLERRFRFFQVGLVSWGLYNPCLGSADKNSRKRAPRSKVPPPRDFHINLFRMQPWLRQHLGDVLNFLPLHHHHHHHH

human C2 E490A = biological target: T2, human C2 E490A (human, UniProt P06681 21-752)
T2 sequence: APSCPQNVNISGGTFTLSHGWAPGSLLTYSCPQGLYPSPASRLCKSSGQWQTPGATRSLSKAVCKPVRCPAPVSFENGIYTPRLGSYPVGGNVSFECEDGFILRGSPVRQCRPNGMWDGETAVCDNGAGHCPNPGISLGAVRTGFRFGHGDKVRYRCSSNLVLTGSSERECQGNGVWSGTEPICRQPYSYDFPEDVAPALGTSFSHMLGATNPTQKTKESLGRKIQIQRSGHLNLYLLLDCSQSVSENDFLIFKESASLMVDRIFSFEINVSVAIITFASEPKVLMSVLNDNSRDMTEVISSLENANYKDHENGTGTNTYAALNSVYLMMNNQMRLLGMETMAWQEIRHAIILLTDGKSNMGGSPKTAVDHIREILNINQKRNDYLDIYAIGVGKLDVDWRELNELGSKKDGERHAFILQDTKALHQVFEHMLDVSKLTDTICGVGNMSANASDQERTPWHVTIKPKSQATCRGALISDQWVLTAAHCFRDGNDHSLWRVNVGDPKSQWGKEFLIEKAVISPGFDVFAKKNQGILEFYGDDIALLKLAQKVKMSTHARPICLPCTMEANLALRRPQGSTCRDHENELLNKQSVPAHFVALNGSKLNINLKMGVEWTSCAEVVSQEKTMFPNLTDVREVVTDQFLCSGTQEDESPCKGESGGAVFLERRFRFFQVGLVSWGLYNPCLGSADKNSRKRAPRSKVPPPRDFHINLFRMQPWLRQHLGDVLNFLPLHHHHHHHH

human C2 R434A = biological target: T3, human C2 R434A (human, UniProt P06681 21-752)
T3 sequence: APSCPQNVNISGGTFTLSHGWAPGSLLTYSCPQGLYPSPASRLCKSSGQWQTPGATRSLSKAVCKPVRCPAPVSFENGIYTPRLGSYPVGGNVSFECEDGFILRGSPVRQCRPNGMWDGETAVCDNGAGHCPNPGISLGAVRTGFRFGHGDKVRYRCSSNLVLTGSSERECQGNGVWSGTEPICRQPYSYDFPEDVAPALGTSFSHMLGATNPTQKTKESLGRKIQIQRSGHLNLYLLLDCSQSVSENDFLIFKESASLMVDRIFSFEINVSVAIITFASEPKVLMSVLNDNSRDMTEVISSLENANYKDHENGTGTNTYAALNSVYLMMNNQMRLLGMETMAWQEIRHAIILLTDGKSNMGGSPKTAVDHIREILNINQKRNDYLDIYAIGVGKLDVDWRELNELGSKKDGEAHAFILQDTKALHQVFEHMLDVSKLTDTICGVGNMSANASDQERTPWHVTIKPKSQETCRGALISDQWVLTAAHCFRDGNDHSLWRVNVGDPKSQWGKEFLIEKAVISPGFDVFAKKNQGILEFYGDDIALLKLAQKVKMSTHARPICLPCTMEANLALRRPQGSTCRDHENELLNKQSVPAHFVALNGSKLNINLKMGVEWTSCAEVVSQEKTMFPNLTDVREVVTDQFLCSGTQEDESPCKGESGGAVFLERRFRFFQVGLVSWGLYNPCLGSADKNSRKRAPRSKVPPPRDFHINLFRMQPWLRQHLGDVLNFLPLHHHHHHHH

human C2 L620A = biological target: T4, human C2 L620A (human, UniProt P06681 21-752)
T4 sequence: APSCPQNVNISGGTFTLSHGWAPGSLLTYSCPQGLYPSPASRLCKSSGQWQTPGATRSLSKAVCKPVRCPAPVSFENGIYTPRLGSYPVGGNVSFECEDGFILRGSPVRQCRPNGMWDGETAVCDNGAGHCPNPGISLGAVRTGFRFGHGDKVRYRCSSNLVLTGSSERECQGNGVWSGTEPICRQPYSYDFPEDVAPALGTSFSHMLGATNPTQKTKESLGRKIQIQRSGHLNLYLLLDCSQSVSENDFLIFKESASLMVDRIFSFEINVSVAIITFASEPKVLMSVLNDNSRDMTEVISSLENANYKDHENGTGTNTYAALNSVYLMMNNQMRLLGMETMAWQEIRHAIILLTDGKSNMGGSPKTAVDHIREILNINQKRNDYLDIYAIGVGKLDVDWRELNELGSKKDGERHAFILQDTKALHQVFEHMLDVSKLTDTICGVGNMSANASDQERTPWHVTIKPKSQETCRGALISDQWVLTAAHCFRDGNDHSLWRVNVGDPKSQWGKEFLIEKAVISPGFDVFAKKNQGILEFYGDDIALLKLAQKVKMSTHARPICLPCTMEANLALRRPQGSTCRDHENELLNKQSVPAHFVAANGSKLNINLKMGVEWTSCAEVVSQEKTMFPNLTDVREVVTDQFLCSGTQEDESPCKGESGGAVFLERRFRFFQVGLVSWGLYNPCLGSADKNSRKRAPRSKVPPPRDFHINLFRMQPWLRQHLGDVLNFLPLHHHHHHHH

B1: RF16-226 (antibody, human IgG4 S228P, lambda)
heavy: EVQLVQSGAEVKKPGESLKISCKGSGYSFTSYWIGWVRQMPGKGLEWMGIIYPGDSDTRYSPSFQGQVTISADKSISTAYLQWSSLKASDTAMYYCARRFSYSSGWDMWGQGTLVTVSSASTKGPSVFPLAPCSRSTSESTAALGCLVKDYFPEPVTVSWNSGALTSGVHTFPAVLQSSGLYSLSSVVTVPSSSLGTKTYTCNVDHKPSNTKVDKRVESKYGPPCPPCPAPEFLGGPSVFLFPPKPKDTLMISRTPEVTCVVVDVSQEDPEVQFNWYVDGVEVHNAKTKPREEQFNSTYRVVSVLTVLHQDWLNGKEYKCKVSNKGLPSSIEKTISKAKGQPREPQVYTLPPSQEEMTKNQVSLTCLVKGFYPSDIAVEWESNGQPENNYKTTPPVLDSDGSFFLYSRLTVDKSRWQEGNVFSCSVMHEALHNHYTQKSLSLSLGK
light: SYELTQPPSVSVSPGQTARITCSGDALTSKYVAWYQQKSGLAPLLVIYEDTRRPSGIPAKFSGSSSGSVATLTISGAHGDDEADYYCYSTDASGHQRVFGGGTKLTVLSQPKAAPSVTLFPPSSEELQANKATLVCLISDFYPGAVTVAWKADGSPVKAGVETTKPSKQSNNKYAASSYLSLTPEQWKSHRSYSCQVTHEGSTVEKTVAPTECS
notes: pH-dependent anti-C2 antibody from a phage display library; also called WT
- Kd (human C2 M648A): 203 nM
- Kd (human C2 E490A): 15.6 nM
- Kd (human C2 R434A): 142 nM
- Kd (human C2 L620A): 11.1 nM
